Test results as given in US20250361274A1, “PEPTIDE AND PEPTIDE-CONTAINING AGENT” (PEPTIDREAM INC., priority 2022, published 2025).
Numbered stars: 1 amine (or outer) side, 2 acyl side, 3 side chain; on linkers, the order of the positions; unused ones are H or OH. Bridge positions count the residues as written; N and C are the ends. Square brackets hold non-standard residues; d marks the D form. Ends that are not written are not given here. KCOpipzaa = N6-(4-(carboxymethyl)piperazine-1-carbonyl)-L-lysine, O=C(NCCCC[C@H](N[*:1])C(=O)[*:2])N1CCN(CC(=O)[*:3])CC1; pBph3F = (S)-2-amino-3-(3-fluoro-[1,1'-biphenyl]-4-yl)propanoic acid, O=C([C@H](Cc1ccc(-c2ccccc2)cc1F)N[*:1])[*:2]; 3Pal(6-Ph) = N[C@@H](Cc1ccc(-c2ccccc2)nc1)C(=O)O; Phe(4-COOH) = N[C@@H](Cc1ccc(C(=O)O)cc1)C(=O)O; NMePhe(4-Me) = CN[C@@H](Cc1ccc(C)cc1)C(=O)O; Bip = N[C@@H](Cc1ccc(-c2ccccc2)cc1)C(=O)O; Phe(3-Me) = Cc1cccc(C[C@H](N)C(=O)O)c1; Phe(4-F) = N[C@@H](Cc1ccc(F)cc1)C(=O)O; Hyp = O=C(O)[C@@H]1C[C@@H](O)CN1; NMeF = CN[C@@H](Cc1ccccc1)C(=O)O; 4Pal = N[C@@H](Cc1ccncc1)C(=O)O; Cha = N[C@@H](CC1CCCCC1)C(=O)O; βAla = NCCC(=O)O

How the values were obtained:
BMP4 = biological target: T1, BMP4 (Homo sapiens, UniProt P12644); assay: BMP4 signal transduction inhibitory activity: SMAD1 phosphorylation by BMP4 stimulus, AlphaLISA SureFire, A549 cells; format: cell-based; settings: for aLISA BMP4: inhibition of SMAD1 phosphorylation by BMP4 stimulus, A549 cells, ND
T1 sequence (P12644 293-408): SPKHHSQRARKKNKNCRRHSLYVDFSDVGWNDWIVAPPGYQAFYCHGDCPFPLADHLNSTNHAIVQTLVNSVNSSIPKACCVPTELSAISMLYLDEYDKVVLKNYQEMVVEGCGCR

BMP7 = biological target: T2, BMP7 (Homo sapiens, UniProt P18075); assay: BMP7 signal transduction inhibitory activity: SMAD1 phosphorylation by BMP7 stimulus, A549 cells; format: cell-based; settings: for aLISA BMP7: inhibition of SMAD1 phosphorylation by BMP7 stimulus, A549 cells, ND
T2 sequence (P18075 293-431): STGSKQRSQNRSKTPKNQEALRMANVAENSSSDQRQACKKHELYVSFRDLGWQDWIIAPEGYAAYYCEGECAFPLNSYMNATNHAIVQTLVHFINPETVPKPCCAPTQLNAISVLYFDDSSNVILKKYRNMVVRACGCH
Outline: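 SMAD1 phosphorylation readout in A549 cells stimulated with BMP7 (10 nM). Peptides were tested at three levels (e.g. 1/10/100, 10/100/1,000, 100/300/1,000, 10/30/90 nM) or at eight points, 1/3 steps, from 100 or 1,000 nM. Recombinant Noggin served as positive control at matching concentrations.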

[1] = BMP4 0.2 nM stimulus, peptide conc. in assay 0.2, 2, 20 nM
[2] = BMP7 10 nM stimulus, peptide conc. in assay 1, 10, 100 nM
[3] = peptides of Synthesis 2, classes A-C
[4] = peptides of Synthesis 2, classes A-D

Row | Substance | aLISA BMP4 (0.2 nM) % inh (BMP4; [1]) | aLISA BMP7 (10 nM) % inh (BMP7; [2]) | aLISA BMP4 (BMP4; [3]) | aLISA BMP7 (BMP7; [4]) | other results
1 | 394 (FG[NMeF]G[Bip]GDD[Cha]A[NMePhe(4-Me)]LHCG-NH2; not fully specified) [compound 394] | ND (the inhibitory activity was less than 30% at the maximum concentration evaluated) | D (showed less than 30% of inhibitory activity in 10 nM-addition zone and showed 30% or more of inhibitory activity in 100 nM-addition zone) | – | – | –
2 | 143 ({CH2CO}-ERVYVDR[Bip]PYY[Bip]Y[Phe(4-COOH)][Phe(4-COOH)]SCG-NH2; thioether N-17; not fully specified) [compound 143] | – | – | – | – | aLISA BMP4 (BMP4; peptides of Synthesis 1, classes D-F): D (showed 50% or more of inhibitory activity in 0.2 nM-addition zone); aLISA BMP7 (BMP7; peptides of Synthesis 1, classes E, F): E (showed 50% or more of inhibitory activity in a zone to which the peptide was added in an amount of 10 nM)
3 | 393 (FG[NMePhe(4-Me)]G[Bip]GDD[Cha]A[NMeF]LHCG-NH2; not fully specified) [compound 393] | A (showed less than 30% of inhibitory activity in 2 nM-peptide-addition zone and showed 30% or more of inhibitory activity in 20 nM-addition zone) | D (showed less than 30% of inhibitory activity in 10 nM-addition zone and showed 30% or more of inhibitory activity in 100 nM-addition zone) | – | – | –
4 | 123 ({CH2CO}-ERV[Phe(4-COOH)]V[KCOpipzaa]R[Bip]PYV[Bip]Y[Phe(4-COOH)][Phe(4-COOH)]SC[βAla][dE]-OH; thioether N-17; not fully specified) [compound 123] | – | – | A (showed an inhibitory activity of 50% or more in a zone to which the peptide was added to in an amount of 0.2 nM) | C (showed less than 50% of inhibitory activity in 10 nM-addition zone and showed 50% or more of inhibitory activity in 100 nM-addition zone) | –
5 | 101 ({CH2CO}-E[KCOpipzaa]VYV[KCOpipzaa]R[3Pal(6-Ph)]SYP[Bip]Y[Phe(4-COOH)][Phe(4-COOH)]SC[βAla][dE]-OH; thioether N-17; not fully specified) [compound 101] | – | – | A (showed an inhibitory activity of 50% or more in a zone to which the peptide was added to in an amount of 0.2 nM) | C (showed less than 50% of inhibitory activity in 10 nM-addition zone and showed 50% or more of inhibitory activity in 100 nM-addition zone) | –
6 | 80 ({CH2CO}-E[KCOpipzaa]VYVDR[Bip][KCOpipzaa]YP[Bip][Phe(4-F)][Phe(4-COOH)][4Pal]SCG-NH2; thioether N-17; not fully specified) [compound 80] | – | – | A (showed an inhibitory activity of 50% or more in a zone to which the peptide was added to in an amount of 0.2 nM) | C (showed less than 50% of inhibitory activity in 10 nM-addition zone and showed 50% or more of inhibitory activity in 100 nM-addition zone) | –
7 | 301 (ERV[Phe(4-COOH)]V[KCOpipzaa]R[3Pal(6-Ph)][KCOpipzaa]Y[Hyp][pBph3F]Y[Phe(4-COOH)][Phe(4-COOH)]SCG-NH2; not fully specified (N-terminus, bridges); also: cyclic peptide, ring closure not given here) [compound 301] | – | – | – | – | aLIZA BMP4 (0.2 nM) % inh (BMP4; BMP4 0.2 nM stimulus, peptide conc. in assay 0.02, 0.2, 2 nM, class symbols): C (showed less than 30% of inhibitory activity in 0.2 nM-addition zone and showed 30% or more of inhibitory activity in 2 nM-addition zone); aLIZA BMP7 (10 nM) % inh (BMP7; BMP7 10 nM stimulus, peptide conc. in assay 10, 100, 1000 nM, class symbols): E (showed less than 30% of inhibitory activity in 100 nM-addition zone and showed 30% or more of inhibitory activity in 1,000 nM-addition zone)
8 | 381 (FG[NMeF]G[Phe(3-Me)]GDD[Cha]A[NMeF]LHCG-NH2; not fully specified) [compound 381] | – | – | – | – | aLISA BMP4 (0.2 nM) % inh (BMP4; BMP4 0.2 nM stimulus, peptide conc. in assay 2, 20, 200 nM): ND (the inhibitory activity was less than 30% at the maximum concentration evaluated); aLISA BMP7 (10 nM) % inh (BMP7; BMP7 10 nM stimulus, peptide conc. in assay 10, 30, 90 nM): G (showed less than 30% of inhibitory activity in 30 nM-addition zone and showed 30% or more of inhibitory activity in 90 nM-addition zone)
9 | 405 (FG[NMeF]G[Bip]GDE[Cha]Q[NMeF]L[Phe(4-COOH)]CG; not fully specified) [compound 405] | ND (the inhibitory activity was less than 30% at the maximum concentration evaluated) | D (showed less than 30% of inhibitory activity in 10 nM-addition zone and showed 30% or more of inhibitory activity in 100 nM-addition zone) | – | – | –
